These results are taken from patent US20250269047A1.

The chains are these.
B1: ch10B4 (antibody, human IgG1, V domains shown)
VH: EVQLQQSGPELVKPGASVKISCKTSGYTFTEYIMHWVKQSHGKSLEWIGGINPNNGGTTYNQKFKGKATLTVDKSSSTAYMELRSLTSEDSAVYYCARKGKDYFDWYFDVWGAGTTVTVSS
VL: QIVLTQSPTIMSASPGEKVTMTCSASSSVSYMHWYQQKSGTSPKRWIYDTSKLASGVPARFSGSGSGTSYSLTISSMEAEDAATYYCQQWSSNPLTFGAGTKLELK
B2: ch17A3 (antibody, human IgG1, V domains shown)
VH: QVQLQQSGPELVRPGVSVKISCKGSGYTFTDYALHWVKQSHAKSPQWIGLINTYSSNTNYNQKFKDKATMTVDKSSSTAYMELARLTSEDSAIYYCARGITAVVGTRYYAMDYWGQGTSVTVSS
VL: NIVLTQSPTTLSVTPGDTVSLSCRASQSISNNLHWYQQRSHESPRLIIKYTSQNISGIPSRFSGSGSGTDFTLSINSVETEDFGMYFCQQSYSWPLTFGAGTKLELKR
B3: ch9B11 (antibody, human IgG1, V domains shown)
VH: EVQLQQSGPELVRPGVSVKISCKGSGYSFTDYAIHWVKQSHAMSLEWIGIINTYYGNTNYNQKFKGKATMTVDKSSSTAYMELARLTSADSAIYYCARSTTTATFYWYFDVWGAGTTVSVSS
VL: DIVLTQSPVTLSVTPGDSVSLSCRASQSINNNLHWYQQKPHESPRLLIKYASQSISGIPSRFSGSGSGTDFTLSFNSVETEDFGMYFCQQSHSWPYTFGGGTKLEIK
B4: Enoblituzumab (antibody, human IgG1, kappa, V domains shown)
VH: EVQLVESGGGLVQPGGSLRLSCAASGFTFSSFGMHWVRQAPGKGLEWVAYISSDSSAIYYADTVKGRFTISRDNAKNSLYLQMNSLRDEDTAVYYCGRGRENIYYGSRLDYWGQGTTVTVSS
VL: DIQLTQSPSFLSASVGDRVTITCKASQNVDTNVAWYQQKPGKAPKALIYSASYRYSGVPSRFSGSGSGTDFTLTISSLQPEDFATYYCQQYNNYPFTFGQGTKLEIKR
B5: MGC-018 (antibody, human IgG1, kappa, V domains shown)
VH: EVQLVESGGGLVKPGGSLRLSCAASGFTFSSYGMSWVRQAPGKGLEWVATINSGGSNTYYPDSLKGRFTISRDNAKNSLYLQMNSLRAEDTAVYYCARHDGGAMDYWGQGTTVTVSS
VL: DIQMTQSPSSLSASVGDRVTITCRASESIYSYLAWYQQKPGKAPKLLVYNTKTLPEGVPSRFSGSGSGTDFTLTISSLQPEDFATYYCQHHYGTPPWTFGQGTRLEIKR
B6: hz17A3-14 (antibody, human IgG1, kappa, V domains shown)
VH: EVQLVQSGAEVKKPGASVKVSCKASGYTFTDYALHWVRQAPGQGLEWMGLINTYSSNTNYNQKFKDRVTMTRDTSISTAYMELSRLRSEDTAVYYCARGITAVVGTRYYAMDYWGQGTLVTVSS
VL: EIVLTQSPGTLSLSPGERATLSCRASQSISNNLHWYQQKPGQAPRLLIKYTSQSISGIPDRFSGSGSGTDFTLTISRLEPEDFAVYYCQQSYSWPLTFGGGTKVEIKR

One assay deals with human B7-H3 naturally expressed on the surface of tumor cells (human) (UniProt Q5ZPR3). The experiment in a line: FACS on A431 cells.
human B7-H3 naturally expressed on the surface of tumor cells (human), sequence (Q5ZPR3 29-534): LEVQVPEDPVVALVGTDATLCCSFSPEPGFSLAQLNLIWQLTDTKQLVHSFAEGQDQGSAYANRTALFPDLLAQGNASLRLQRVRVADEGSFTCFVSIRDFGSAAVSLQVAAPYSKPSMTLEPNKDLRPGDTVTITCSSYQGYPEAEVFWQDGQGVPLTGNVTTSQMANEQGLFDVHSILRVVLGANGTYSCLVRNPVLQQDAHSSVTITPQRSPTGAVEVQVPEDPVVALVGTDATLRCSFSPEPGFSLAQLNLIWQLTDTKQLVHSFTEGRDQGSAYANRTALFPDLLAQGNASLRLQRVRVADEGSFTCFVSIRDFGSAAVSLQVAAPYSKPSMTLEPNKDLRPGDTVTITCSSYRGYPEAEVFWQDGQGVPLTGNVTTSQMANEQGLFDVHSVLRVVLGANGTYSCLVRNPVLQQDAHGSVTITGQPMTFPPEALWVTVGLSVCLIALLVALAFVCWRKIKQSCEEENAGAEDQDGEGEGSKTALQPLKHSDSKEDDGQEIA
Consider B1, for which the EC50 is 0.203 µg/mL. Same read-out and setting: with B2 the figure was 0.101 µg/mL. The same measure, in the same setting: next, B3: 0.137 µg/mL; B4: 0.374 µg/mL.

For a further assay the target is unchanged. Nature of the assay: FACS on SKVO3 cells.
As for B5, the EC50 was determined as 0.0565 µg/mL. B6 returned an EC50 of 0.0441 µg/mL. The same measure, in the same setting: with B4 the figure was 0.191 µg/mL.
